Measured values as given in patent US20050080014A1 (Amgen, published 2005).
Groups on a side chain read outwards from the residue. No end group written: not given here. maleimide = maleimide group of MeO-PEG-maleimide, which reacts with the Cys side-chain thiol

T1: human mpl receptor (human, UniProt P40238 26-635)
T1 sequence (looked up): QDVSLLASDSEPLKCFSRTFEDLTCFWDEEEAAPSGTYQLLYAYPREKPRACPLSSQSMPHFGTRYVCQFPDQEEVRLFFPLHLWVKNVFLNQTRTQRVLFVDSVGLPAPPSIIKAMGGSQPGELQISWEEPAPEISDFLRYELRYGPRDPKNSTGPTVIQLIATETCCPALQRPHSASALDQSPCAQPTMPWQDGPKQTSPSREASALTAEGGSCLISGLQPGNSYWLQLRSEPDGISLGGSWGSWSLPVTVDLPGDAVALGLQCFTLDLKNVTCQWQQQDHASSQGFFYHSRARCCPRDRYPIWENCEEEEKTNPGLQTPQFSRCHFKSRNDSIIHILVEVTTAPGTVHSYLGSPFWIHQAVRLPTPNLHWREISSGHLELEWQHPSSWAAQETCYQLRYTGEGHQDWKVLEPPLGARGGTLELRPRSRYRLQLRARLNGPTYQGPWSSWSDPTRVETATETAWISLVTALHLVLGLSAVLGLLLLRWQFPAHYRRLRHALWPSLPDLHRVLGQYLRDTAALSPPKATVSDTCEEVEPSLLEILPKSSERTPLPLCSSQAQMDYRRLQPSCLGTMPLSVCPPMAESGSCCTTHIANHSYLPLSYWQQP


target: T1, human mpl receptor; experiment: cell-based or functional assay; conditions: not given

Row | Molecule | Relative Potency (EC50), proliferation of murine 32D cells transfected with human mpl receptor
1 | IEGPTLRQWLAARAGGGC([maleimide-mPEG 5 kDa])GGGGIEGPTLRQWLAARA [TMP-GGGC(PEG)GGGG-TMP (SEQ ID NO. 18)] | 5 log units of activity (1 unit is approximately 10-fold)
2 | IEGPTLRQWLAARAGIEGPTLRQWLAARA [TMP-(Gly)n-TMP, n = 1] | 4 log units of activity (1 unit is approximately 10-fold)
3 | IEGPTLRQWLAARA (also: dimer of two TMP chains joined at C-termini through a Lys branch (structure only in a drawing)) [TMP C-C dimer (SEQ ID NO: 2)] | 3.5 log units of activity (1 unit is approximately 10-fold)
4 | IEGPTLRQWLAARAIEGPTLRQWLAARA [TMP-(Gly)n-TMP, n = 0] | 4.5 log units of activity (1 unit is approximately 10-fold)
5 | IEGPTLRQWLAARAGGGGGGGGIEGPTLRQWLAARA [TMP-(Gly)n-TMP, n = 8] | 4.5 log units of activity (1 unit is approximately 10-fold)
6 | IEGPTLRQALAARAGGGGGGGGIEGPTLRQALAARA [IEGPTLRQALAARA-GGGGGGGG-IEGPTLRQALAARA (SEQ ID NO. 13)] | 0.5 log units of activity (1 unit is approximately 10-fold)
7 | IEGPTLRQWLAARAGGGCGGGGIEGPTLRQWLAARA [TMP-GGGCGGGG-TMP (SEQ ID NO. 16)] | 4 log units of activity (1 unit is approximately 10-fold)
8 | IEGPTLRQWLAARAGGGCGGGGIEGPTLRQWLAARA (also: homodimer: intermolecular disulfide between the linker Cys18 of two chains) [peptide 22 (dimer of a dimer, oxidised peptide 18)] | 4 log units of activity (1 unit is approximately 10-fold)
9 | IEGPTLRQWLAARAGGGKGGGGIEGPTLRQWLAARA (not fully specified (residue 18)) [TMP-GGGK(PEG)GGGG-TMP (SEQ ID NO. 17)] | 5 log units of activity (1 unit is approximately 10-fold)
10 | IEGPTLRQWLAARAGGGNGSGGIEGPTLRQWLAARA [TMP-GGGNGSGG-TMP (SEQ ID NO. 19)] | 4 log units of activity (1 unit is approximately 10-fold)
11 | IEGPTLRQWLAARAGGGKGGGGIEGPTLRQWLAARA [TMP-GGGKGGGG-TMP (SEQ ID NO. 14)] | 4 log units of activity (1 unit is approximately 10-fold)
12 | IEGPTLRQWLAARAGGGGGGGIEGPTLRQWLAARA [TMP-(Gly)n-TMP, n = 7] | 4 log units of activity (1 unit is approximately 10-fold)
13 | IEGPTLRQWLAARAGGGIEGPTLRQWLAARA [TMP-(Gly)n-TMP, n = 3] | 4 log units of activity (1 unit is approximately 10-fold)
14 | IEGPTLRQWLAARAGPNGIEGPTLRQWLAARA [TMP-GPNG-TMP (SEQ ID NO. 10)] | 3 log units of activity (1 unit is approximately 10-fold)
15 | IEGPTLRQWLAARAGGGGIEGPTLRQWLAARA [TMP-(Gly)n-TMP, n = 4] | 4 log units of activity (1 unit is approximately 10-fold)
16 | IEGPTLRQWLAARA [TMP monomer (SEQ ID NO: 1)] | 1 log units of activity (1 unit is approximately 10-fold)
17 | IEGPTLRQWLAARAGGGGGIEGPTLRQWLAARA [TMP-(Gly)n-TMP, n = 5] | 4 log units of activity (1 unit is approximately 10-fold)
18 | IEGPTLRQWLAARAGGIEGPTLRQWLAARA [TMP-(Gly)n-TMP, n = 2] | 4 log units of activity (1 unit is approximately 10-fold)
19 | IEGPTLRQWLAARAGGGGGGIEGPTLRQWLAARA [TMP-(Gly)n-TMP, n = 6] | 4 log units of activity (1 unit is approximately 10-fold)

same assay, conditions: scale: log units of activity

Row | Molecule | Relative Potency (EC50), proliferation of murine 32D cells transfected with human mpl receptor
20 | TPO (ligand) | 4
21 | TMP-(Gly)n-TMP, n = 9 (peptide) | 4
22 | TMP-(Gly)n-TMP, n = 14 (peptide) | 4
23 | TMP-(Gly)n-TMP, n = 10 (peptide) | 4
